The target in assay [1] is T1, Full length recombinant HBcAg (rHBcAg) encompassing residues 1-183 (hepatitis B virus, UniProt P03146 1-183).
T1 construct: range 1-183; also called hepatitis B virus core antigen
The assay can be described thus: competition EIA, peptide added to HBcAg before mAb 4-2 (competitor); OD of bound mAb.

The target in assay [2] is T1, Full length recombinant HBcAg (rHBcAg) …. The assay can be described thus: EIA, support-bound peptide, HBcAg 5 ug/ml.
In assay [3] the target is T2, VKLSCKASGYIFTSHRGGPEE (SEQ. ID. No. 74).
T2 peptide: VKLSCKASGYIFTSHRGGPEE
The assay is described as follows: competition EIA, 5 ug HBcAg peptide + 5 ug SEQ 74 peptide on coated HBcAg (competitor); OD of bound SEQ 74 peptide.

The target in assay [4] is T3, truncated recombinant form of HBeAg containing nine residues of pre-core and the 150 first residues of HBcAg (hepatitis B virus, UniProt P03146 1-150).
T3 construct: domain: nine residues of pre-core;range 1-150; also called hepatitis B virus e antigen
T3 sequence (P03146 1-150): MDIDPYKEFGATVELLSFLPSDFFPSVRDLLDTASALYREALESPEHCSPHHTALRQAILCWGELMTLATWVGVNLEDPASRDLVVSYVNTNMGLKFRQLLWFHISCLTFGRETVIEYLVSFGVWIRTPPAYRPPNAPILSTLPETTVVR
The assay is described as follows: EIA, support-bound peptide, HBeAg 20 ug/ml.

Assay [5] concerns the target T1, Full length recombinant HBcAg (rHBcAg) …. The assay can be described thus: EIA, support-bound peptide, HBcAg 0.2 ug/well.
Assay [6] has the same target. The assay is described as follows: EIA, peptide coated 100 ug/ml, HBcAg 10 ug/ml.
For assay [7], the target named is T3, truncated recombinant form of HBeAg …. The assay can be described thus: EIA, support-bound peptide, HBeAg 2.5 ug/ml.
The target in assay [8] is T4, non-structural 3 protein (NS3) of the hepatitis C virus (HCV) (hepatitis C virus).
T4 construct: Control antigen; also called HCV NS3
The assay can be described thus: EIA, support-bound peptide, HCV NS3 control.

In assay [9] the target is T1, Full length recombinant HBcAg (rHBcAg) …. The assay can be described thus: EIA, support-bound peptide, HBcAg 0.67 ug/ml.
Assay [10] shares this target. The assay is described as follows: EIA, peptide coated 3.125 ug/ml, HBcAg 10 ug/ml.
Assay [11] shares this target. The assay is described as follows: EIA, peptide coated 25 ug/ml, HBcAg 10 ug/ml.
Assay [12] shares this target. The assay can be described thus: EIA, support-bound peptide, HBcAg 10 ug/ml.
The target is the same in assay [13]. The assay is described as follows: EIA, peptide coated 6.25 ug/ml, HBcAg 10 ug/ml.
For assay [14] the target is unchanged. The assay can be described thus: EIA, support-bound peptide, HBcAg 2.5 ug/ml.
Assay [15] has the same target. The assay is described as follows: EIA, peptide coated 50 ug/ml, HBcAg 10 ug/ml.
Assay [16] addresses T3, truncated recombinant form of HBeAg …. The assay is described as follows: EIA, support-bound peptide, HBeAg 10 ug/ml.
The target of assay [17] is T1, Full length recombinant HBcAg (rHBcAg) …. The assay is described as follows: EIA, support-bound peptide, HBcAg 1.25 ug/ml.
The target of assay [18] is T3, truncated recombinant form of HBeAg …. The assay is described as follows: EIA, support-bound peptide, HBeAg 1.25 ug/ml.
Assay [19] concerns the target T1, Full length recombinant HBcAg (rHBcAg) …. The assay can be described thus: EIA, support-bound peptide, HBcAg 20 ug/ml.
Assay [20] has as its target T3, truncated recombinant form of HBeAg …. The assay can be described thus: EIA, support-bound peptide, HBeAg 5 ug/ml.
In assay [21] the target is T1, Full length recombinant HBcAg (rHBcAg) …. The assay can be described thus: EIA, peptide coated 12.5 ug/ml, HBcAg 10 ug/ml.
For assay [22] the target is unchanged. The assay is described as follows: EIA, support-bound peptide, HBcAg 2 ug/well.
Assay [23] deals with T3, truncated recombinant form of HBeAg …. The assay is described as follows: EIA, support-bound peptide, HBeAg 0.67 ug/ml.
Assay [24] deals with T1, Full length recombinant HBcAg (rHBcAg) …. The assay is described as follows: EIA, support-bound peptide, HBcAg 5 ug/ml. This is another data set of the same source.

T1 sequence (P03146 whole entry, the tested form may be a part): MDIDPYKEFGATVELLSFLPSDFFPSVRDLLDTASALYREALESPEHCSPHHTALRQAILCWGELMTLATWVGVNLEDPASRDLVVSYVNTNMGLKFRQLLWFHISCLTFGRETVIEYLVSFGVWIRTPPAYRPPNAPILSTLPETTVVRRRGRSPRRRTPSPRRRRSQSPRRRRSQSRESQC

B1: SVKLSCKASGYIFTS (SEQ. ID. No. 43) (peptide)
peptide: SVKLSCKASGYIFTS
Consider B1, for which the “OD at 490 nm” value in assay [1] amounted to 0.175 OD; in assay [2], 3.36 OD.

B2: HBcAg peptide SDFFPSVRDLLDTASALYRE (residues 21-40, Sequence ID 97) (peptide)
peptide: SDFFPSVRDLLDTASALYRE
Consider B2, for which, in assay [3], the “OD at 490 nm” value stood at 1.58 OD.

B3: ASGYIFTS (SEQ. ID. No. 50) (peptide)
peptide: ASGYIFTS
Regarding B3, the “OD at 490 nm” value worked out at 0.92 OD in assay [1] and 0.407 OD in assay [2].

B4: TSSYSYMHWY (SEQ. ID. No. 62) (peptide)
peptide: TSSYSYMHWY
Consider B4, for which, in assay [2], the “OD at 490 nm” value stood at 0.317 OD.

B5: SSYSYMHWY (SEQ. ID. No. 63) (peptide)
peptide: SSYSYMHWY
Regarding B5, the “OD at 490 nm” value in [2] amounted to 0.311 OD.

B6: CKASGYIFTS (SEQ. ID. No. 48) (peptide)
peptide: CKASGYIFTS
Turning to B6, the “OD at 490 nm” value in assay [1] came out at 0.851 OD; in [2] it was 0.255 OD.

B7: SYMHWY (SEQ. ID. No. 65) (peptide)
peptide: SYMHWY
For the molecule B7, the “OD at 490 nm” value in assay [2] was 0.218 OD.

B8: HBcAg peptide ATVELLSFLPSDFFPSVRDL (residues 11-30, Sequence ID 96) (peptide)
peptide: ATVELLSFLPSDFFPSVRDL
For the molecule B8, the “OD at 490 nm” value in assay [3] amounted to 1.39 OD.

B9: HBcAg peptide LDTASALYREALESPEHCSP (residues 31-50, Sequence ID 98) (peptide)
peptide: LDTASALYREALESPEHCSP
On to B9, for which the “OD at 490 nm” value in [3] was 1.59 OD.

B10: HBcAg peptide CWGELMTLATWVGVNLEDPA (residues 61-80, Sequence ID 101) (peptide)
peptide: CWGELMTLATWVGVNLEDPA
On to B10, for which the “OD at 490 nm” value in [3] was 1.4 OD.

B11: HBcAg peptide WVGVNLEDPASRDLVVSYVN (residues 71-90, Sequence ID 102) (peptide)
peptide: WVGVNLEDPASRDLVVSYVN
Consider B11, for which, in [3], the “OD at 490 nm” value is 1.41 OD.

B12: LSCKASGYIFTS (SEQ. ID. No. 46) (peptide)
peptide: LSCKASGYIFTS
In the case of B12, the “OD at 490 nm” value in assay [1] came to 0.777 OD; in [2], 0.565 OD.

B13: HBcAg peptide SRDLVVSYVNTNMGLKFRQL (SEQ. ID. NO. 103, residues 81-100) (peptide)
peptide: SRDLVVSYVNTNMGLKFRQL
Regarding B13, the “OD at 490 nm” value in assay [3] is 0.386 OD.

B14: YNMNWVKQSHGKSLEWIGNI (SEQ. ID. No. 30) (peptide)
peptide: YNMNWVKQSHGKSLEWIGNI
notes: also called Peptide # 27
For the molecule B14, the OD in assay [4] was 0.04 OD; in assay [6], 0.151 OD; in [7], 0.032 OD; in [9], 0.02 OD; in [10] it was 0.168 OD; in assay [11] it was 0.162 OD. The OD in assay [12] came to 0.115 OD; in assay [13] it was 0.175 OD; in assay [14] it was 0.042 OD; in assay [15] it was 0.17 OD; in [16] it was 0.037 OD; in assay [17] it was 0.026 OD. The OD worked out at 0.021 OD in [18]; 0.305 OD in [19]; 0.029 OD in assay [20]; 0.181 OD in assay [21]; 0.018 OD in assay [23]; 0.059 OD in assay [24]. For the same molecule, the entries for the “OD at 405 nm” value in [5], in [8] and in assay [22] were 0.114 OD, 0.021 OD and 0.157 OD, respectively.

B15: HBcAg peptide AYRPPNAPILSTLPETTVVR (residues 131-150, Sequence ID 108) (peptide)
peptide: AYRPPNAPILSTLPETTVVR
As for B15, in assay [3], the “OD at 490 nm” value was 1.56 OD.

B16: HBcAg peptide LWFHISCLTFGRETVIEYLV (residues 101-120, Sequence ID 105) (peptide)
peptide: LWFHISCLTFGRETVIEYLV
Turning to B16, in assay [3], the “OD at 490 nm” value was determined as 1.13 OD.

B17: GYIFTS (SEQ. ID. No. 52) (peptide)
peptide: GYIFTS
As to B17, the “OD at 490 nm” value in assay [1] was 0.903 OD; in assay [2] it was 0.414 OD.

B18: HBcAg peptide ALESPEHCSPHHTALRQAIL (residues 41-60, Sequence ID 99) (peptide)
peptide: ALESPEHCSPHHTALRQAIL
In the case of B18, the “OD at 490 nm” value in assay [3] worked out at 1.37 OD.

B19: KPGASVKLSCKASGYIFTS (SEQ. ID. No. 39) (peptide)
peptide: KPGASVKLSCKASGYIFTS
On to B19, for which the “OD at 490 nm” value was 0.202 OD in assay [1] and 1.34 OD in assay [2].

B20: KASGYIFTS (SEQ. ID. No. 49) (peptide)
peptide: KASGYIFTS
As for B20, the “OD at 490 nm” value in assay [1] stood at 0.866 OD; in assay [2] it was 0.237 OD.

B21: SCKASGYIFTS (SEQ. ID. No. 47) (peptide)
peptide: SCKASGYIFTS
With B21, the “OD at 490 nm” value came out at 0.784 OD in assay [1] and 0.297 OD in assay [2].

B22: SYSYMHWY (printed with SEQ. ID. No. 63, a number already used for …) (peptide)
peptide: SYSYMHWY
Regarding B22, the “OD at 490 nm” value in assay [2] was determined as 0.283 OD.

B23: VKLSCKASGYIFTS (SEQ. ID. No. 44) (peptide)
peptide: VKLSCKASGYIFTS
Turning to B23, the “OD at 490 nm” value in assay [1] turned out to be 0.152 OD; in assay [2] it was 3.7 OD.

B24: SGYIFTS (SEQ. ID. No. 51) (peptide)
peptide: SGYIFTS
For B24, the “OD at 490 nm” value in assay [1] amounted to 0.887 OD; in [2], 0.389 OD.

B25: YSYMHWY (SEQ. ID. No. 64) (peptide)
peptide: YSYMHWY
In the case of B25, the “OD at 490 nm” value in assay [2] was determined as 0.245 OD.

B26: ASVKLSCKASGYIFTS (SEQ. ID. No. 42) (peptide)
peptide: ASVKLSCKASGYIFTS
Turning to B26, the “OD at 490 nm” value in assay [1] turned out to be 0.207 OD; in [2] it was 3.22 OD.

B27: PGASVKLSCKASGYIFTS (SEQ. ID. No. 40) (peptide)
peptide: PGASVKLSCKASGYIFTS
B27: the “OD at 490 nm” value in assay [1] was determined as 0.182 OD; in assay [2], 1.72 OD.

B28: GASVKLSCKASGYIFTS (SEQ. ID. No. 41) (peptide)
peptide: GASVKLSCKASGYIFTS
With B28, the figures for the “OD at 490 nm” value in assay [1] and in assay [2] were 0.205 OD and 2.86 OD, respectively.

B29: KLSCKASGYIFTS (SEQ. ID. No. 45) (peptide)
peptide: KLSCKASGYIFTS
Consider B29, for which the “OD at 490 nm” value is 0.808 OD in assay [1] and 3.69 OD in assay [2].

B30: HBcAg peptide TNMGLKFRQLLWFHISCLTF (SEQ. ID. No. 104, residues 91-110) (peptide)
peptide: TNMGLKFRQLLWFHISCLTF
In the case of B30, in [3], the “OD at 490 nm” value was determined as 0.058 OD.

Values taken from patent US20020058247A1 (TRIPEP, published 2002).
